Test results: PMC1634882
Each block holds one substance with its values, some of them ahead of it.

Columns and labels:
[1] = molecular target: PorA in cell envelopes of N. meningitidis strain HB-1 (N. meningitidis (endogenous in HB-1)) (UniProt E6MZM0); experiment: semi-native SDS-PAGE; cell envelopes of N. meningitidis HB-1 or of E. coli expressing PorA or PorA-Q, samples not boiled, blot probed with anti-PorA antibody MN5C11G
[2] = molecular target: PorA-Q mutant protein (penultimate Lys of PorA substituted by Gln) expressed in E. coli (N. meningitidis) (UniProt E6MZM0); experiment: as above
[3] = molecular target: Omp85 from Escherichia coli, refolded in vitro from inclusion bodies (E. coli) (UniProt P0A940)
[4] = molecular target: Omp85 from Escherichia coli, refolded in vitro from inclusion bodies (E. coli) (UniProt P0A940); remark: listed apart in the source

increase in conductivity per 0.12-nS Omp85 channel in planar lipid bilayers (voltage ramps); dose-dependent opening at pM concentrations of denatured PhoE, value at 80 pM [3]: 0.067 nS
percent increase in conductivity per 0.12-nS Omp85 channel upon addition of 80 pM denatured PhoE [3]: 56 to 58%
Substance: denatured E. coli PhoE porin (from UniProt P02932 22-351) (natural protein)

increase in conductivity per 0.12-nS Omp85 channel in planar lipid bilayers (voltage ramps) upon addition of 80 pM denatured LamB [3]: 0.069 nS
percent increase in conductivity per 0.12-nS Omp85 channel upon addition of 80 pM denatured LamB [3]: 56 to 58%
Substance: maltoporin LamB from E. coli, denatured (from UniProt P02943 26-446) (natural protein)

increase in conductivity per 0.12-nS Omp85 channel in planar lipid bilayers; dose-dependent opening at μM concentrations of the peptide, value at 96 μM [4]: 0.6 nS
Substance: synthetic peptide corresponding to the C-terminal 12 amino acid residues of PhoE (CterPhoE)

More lines, now with the values behind:

Substance: PorA in cell envelopes of N. meningitidis strain HB-1 (from UniProt E6MZM0 20-331) (natural protein)
stoichiometry N [1]: 3

Substance: PorA-Q mutant protein (penultimate Lys of PorA substituted by Gln) expressed in E. coli (from UniProt E6MZM0 20-331) (natural protein)
stoichiometry N [2]: 3
